Three molecules from US20170218066A1 (SORRENTO THERAPEUTICS, published 2017) can be followed below.

To fix the notation:
B1: H6B1L-EV (antibody, V domains shown)
VH: QMQLVQSGAEVKKPGSSVKVSCKASGGTFSSYAYSWVRQAPGQGLEWMGGIIPSFGTANYAQKFQGRVTITADESTSTAYMELSSLRSEDTAVYYCARGPIVATITPLDYWGQGTLVTVSS
VL: SYVLMQPPSVSVAPGKTATIACGGENIGRKTVHWYQQKPGQAPVLVIYYDSDRPSGIPERFSGSNSGNTATLTISRVEAGDEADYYCLVWDSSSDHRIFGGGTKLTVL
notes: Fully human antibody of an IgG class, light chain variant of H6B1L
B2: H6B1L-EM (antibody, V domains shown)
VH: QMQLVQSGAEVKKPGSSVKVSCKASGGTFSSYAYSWVRQAPGQGLEWMGGIIPSFGTANYAQKFQGRVTITADESTSTAYMELSSLRSEDTAVYYCARGPIVATITPLDYWGQGTLVTVSS
VL: SYVLTQPPSVSVAPGKTATIACGGENIGRKTVHWYQQKPGQAPVLVIYYDSDRPSGIPERFSGSNSGNTATLTISRVEAGDEADYYCLVWDSSSDHRIFGGGTKLTVL
notes: as for B1
B3: H6B1L (antibody, V domains shown)
VH: QMQLVQSGAEVKKPGSSVKVSCKASGGTFSSYAYSWVRQAPGQGLEWMGGIIPSFGTANYAQKFQGRVTITADESTSTAYMELSSLRSEDTAVYYCARGPIVATITPLDYWGQGTLVTVSS
VL: SYELMQPPSVSVAPGKTATIACGGENIGRKTVHWYQQKPGQAPVLVIYYDSDRPSGIPERFSGSNSGNTATLTISRVEAGDEADYYCLVWDSSSDHRIFGGGTKLTVL
notes: Fully human antibody of an IgG class; also called parent antibody H6B1L; wild type antibody H6B1L

The target of the assay is T1, human PD-L1 (human, UniProt Q9NZQ7 19-238, limits assumed).
T1 construct: also called Programmed death ligand 1; B7-H1
T1 sequence (Q9NZQ7 19-238 limits assumed): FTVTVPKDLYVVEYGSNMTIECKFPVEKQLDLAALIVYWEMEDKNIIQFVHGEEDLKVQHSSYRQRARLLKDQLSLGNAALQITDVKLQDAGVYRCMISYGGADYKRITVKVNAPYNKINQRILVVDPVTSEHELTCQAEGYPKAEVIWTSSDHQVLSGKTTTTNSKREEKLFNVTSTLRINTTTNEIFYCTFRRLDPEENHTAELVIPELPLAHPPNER
Kind of assay: Biacore (SPR). A general note: In SPR one partner is held on a chip, and binding of the other changes the refractive index at the surface.
Take B1: the Ka worked out at 5.48e+08 M⁻¹; the Kd (in general, the concentration at which binding is half-saturated) was 1.82 nM; the koff – broadly, a measure of how fast the partners let go of each other – was 0.00287 s⁻¹; the kon (commonly the rate constant with which the complex forms) was determined as 1.57e+06 M⁻¹ s⁻¹.

For the molecule B2, the Ka turned out to be 6.44e+08 M⁻¹, the Kd was determined as 1.55 nM, the koff is 0.00214 s⁻¹ and the kon turned out to be 1.38e+06 M⁻¹ s⁻¹.

B3 showed a Ka of 5.4e+08 M⁻¹, a Kd of 1.85 nM, a koff of 0.0028 s⁻¹ and a kon of 1.51e+06 M⁻¹ s⁻¹.
